The values that follow come from publication doi:10.1101/785121 (bioRxiv, 2020).

In general, stoichiometry N refers to the number of molecules, sites or subunits per partner or assembly.

Series [1] deals with Isotopically depleted, truncated, strepII-tagged R. rubrum encapsulated ferritin (wild type) (Rhodospirillum rubrum). Put plainly: native MS.
Series [2] shares this target. Nature of the series: native MS. This is another data set of the same source.
The target is the same in series [3]. Put plainly: native MS. This is another data set of the same source.
For series [4] the target is unchanged. Put plainly: native MS. This is another data set of the same source.
Series [5] has the same target. Put plainly: native MS. The source holds these as a separate data set.
For series [6] the target is unchanged. Nature of the series: native MS. This is another data set of the same source.
Series [7] deals with the molecule itself. Nature of the series: native MS.
The target in series [8] is T1, Rhodospirillum rubrum encapsulin (Rhodospirillum rubrum, UniProt Q2RVS0 1-280).
T1 sequence: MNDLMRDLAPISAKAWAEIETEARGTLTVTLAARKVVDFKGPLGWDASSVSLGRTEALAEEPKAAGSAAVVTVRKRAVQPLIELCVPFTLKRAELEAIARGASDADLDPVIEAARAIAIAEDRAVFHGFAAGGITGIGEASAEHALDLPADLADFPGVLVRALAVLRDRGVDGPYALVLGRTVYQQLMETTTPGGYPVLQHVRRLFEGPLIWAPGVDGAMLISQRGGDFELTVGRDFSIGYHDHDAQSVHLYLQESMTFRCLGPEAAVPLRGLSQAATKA
Nature of the series: SEC. For orientation: In gel filtration, larger molecules generally elute earlier.

The series “SEC” concerns the molecule itself. Nature of the series: SEC.
Series [9] deals with the molecule itself. Nature of the series: native MS. This is another data set of the same source.
The series “crystal structure” deals with the molecule itself. Nature of the series: crystal structure.

“And” between values parts separate entries of the source, which are not always exact repeats. Equal entries are not always repeated. Where two headings read alike, the source gives them in different places.

Regarding “Isotopically depleted, truncated, strepII-tagged R. rubrum encapsulated ferritin (wild type) (domain or fragment)”, the stoichiometry N in [1] worked out at 10; in series [2], 4; in series [3] it was 2; in [4], 10; in series [5], 10; in series [6] it was 2.

B1: Rhodospirillum rubrum encapsulated ferritin, wild type (natural protein)
chain: MAQSSNSTHEPLEVLKEETVNRHRAIVSVMEELEAVDWYDQRVDASTDPELTAILAHNRDEEKEHAAMTLEWLRRNDAKWAEHLRTYLFTEGPITAIEAADTAGEGSGGDAAKGATAQGDGSLGIGSLKGEAALARPPRL
Take B1: the “stoichiometry N” value was 2 in “native MS [7]”; 10 and 4 in the series “SEC”. Also, the binding result in series [8] is reported as “binds”.

B2: Rhodospirillum rubrum encapsulated ferritin E31A variant (natural protein)
chain: MAQSSNSTHEPLEVLKEETVNRHRAIVSVMAELEAVDWYDQRVDASTDPELTAILAHNRDEEKEHAAMTLEWLRRNDAKWAEHLRTYLFTEGPITAIEAADTAGEGSGGDAAKGATAQGDGSLGIGSLKGEAALARPPRL
In the case of B2, the “stoichiometry N” value in the series “native MS [9]” was 10; in the series “SEC”, 4 and 2. For the same molecule, the binding result in [8] was “binds”.

B3: Rhodospirillum rubrum encapsulated ferritin E34A variant (natural protein)
chain: MAQSSNSTHEPLEVLKEETVNRHRAIVSVMEELAAVDWYDQRVDASTDPELTAILAHNRDEEKEHAAMTLEWLRRNDAKWAEHLRTYLFTEGPITAIEAADTAGEGSGGDAAKGATAQGDGSLGIGSLKGEAALARPPRL
Turning to B3, the “stoichiometry N” value in the series “native MS [9]” was 10; in “SEC” it was 4 and 2. The binding result in series [8] is listed as “binds”.

B4: Rhodospirillum rubrum encapsulated ferritin W38G variant (natural protein)
chain: MAQSSNSTHEPLEVLKEETVNRHRAIVSVMEELEAVDGYDQRVDASTDPELTAILAHNRDEEKEHAAMTLEWLRRNDAKWAEHLRTYLFTEGPITAIEAADTAGEGSGGDAAKGATAQGDGSLGIGSLKGEAALARPPRL
Regarding B4, the binding result in series [8] is given as “binds”.

B5: Rhodospirillum rubrum encapsulated ferritin W38A variant (natural protein)
chain: MAQSSNSTHEPLEVLKEETVNRHRAIVSVMEELEAVDAYDQRVDASTDPELTAILAHNRDEEKEHAAMTLEWLRRNDAKWAEHLRTYLFTEGPITAIEAADTAGEGSGGDAAKGATAQGDGSLGIGSLKGEAALARPPRL
Regarding B5, the binding result in series [8] is on record as “binds”.

B6: Truncated, C-terminally hexahistidine-tagged R. rubrum encapsulated ferritin E31A variant (domain or fragment)
chain: MAQSSNSTHEPLEVLKEETVNRHRAIVSVMAELEAVDWYDQRVDASTDPELTAILAHNRDEEKEHAAMTLEWLRRNDAKWAEHLRTYLFTEGPITA
Consider B6, for which the “stoichiometry N” value in the series “crystal structure” was 10.

B7: Truncated, C-terminally hexahistidine-tagged R. rubrum encapsulated ferritin E34A variant (domain or fragment)
chain: MAQSSNSTHEPLEVLKEETVNRHRAIVSVMEELAAVDWYDQRVDASTDPELTAILAHNRDEEKEHAAMTLEWLRRNDAKWAEHLRTYLFTEGPITA
Turning to B7, the “stoichiometry N” value in “crystal structure” worked out at 10.
